{"source": "patent US20040253224A1", "about": "“Mammalian mucinase, its recombinant production, and its use in therapy or prophylaxis against diseases in which mucus is involved or infectious diseases” (priority 2001, published 2004)", "origin": "cited, not measured here", "key": {"[1]": {"conditions": "aerosolized, Phase 3, cystic fibrosis patients"}, "[2]": {"conditions": "in vitro"}}}
{"molecule": "recombinant human DNase I: recombinant human deoxyribonuclease I, an enzyme that selectively cleaves DNA (Pulmozyme, Genentech) (protein, UniProt P24855 23-282, looked up) Deoxyribonuclease-1: LKIAAFNIQTFGETKMSNATLVSYIVQILSRYDIALVQEVRDSHLTAVGKLLDNLNQDAPDTYHYVVSEPLGRNSYKERYLFVYRPDQVSAVDSYYYDDGCEPCGNDTFNREPAIVRFFSRFTEVREFAIVPLHAAPGDAVAEIDALYDVYLDVQEKWGLEDVMLMGDFNAGCSYVRPSQWSSIRLWTSPTFQWLIPDSADTTATPTHCAYDRIVVAGMLLRGAVVPDSALPFNFQAAYGLSDQLAQAISDHYPVEVMLK", "values": [{"measurement": "improvement in FEV1", "setting": "[1]", "result": "5.6-5.8%"}, {"measurement": "reduction in respiratory exacerbations", "setting": "[1]", "result": "28-37%"}, {"measurement": "mucociliary transportability of CF sputum", "setting": "[2]", "result": "increased"}, {"measurement": "viscosity and adhesiveness of purulent CF sputum", "setting": "[2]", "result": "decrease"}]}
